Results reported in paper PMC8105298.

Target: p62 (UniProt Q13501)
Test: co-IP of stathmin-GFP with Flag-p62
Conditions: reference: wild type stathmin-GFP; sites S63

binding against the reference: weaker
Substance: stathmin (from UniProt P16949) S63A stathmin-GFP
